Experiment [1] concerns the target T1, recombinant human PCSK9 protein, His-tagged (Immunogen A, hPCSK9-His) (human, UniProt Q8NBP7 31-692, limits assumed, biotin-labelled in the ELISA and blocking assays (Biotin labeling kit)).
T1 construct: also called human PCSK9-His; recombinant hPCSK9-His; not shown: His tag
The experiment in a line: ELISA, biotin-hPCSK9-His on streptavidin plate; antibody 0.67 nM. For orientation: ELISA stands for enzyme-linked immunosorbent assay.

Experiment [2] concerns the target T2, recombinant cyno monkey PCSK9 protein (cyno monkey, UniProt A8T666 31-692 (rhesus entry), limits assumed, biotin-labelled in the ELISA (Biotin labeling kit)).
T2 construct: also called cyno PCSK9; Cyno Monkey PCSK9-His
The experiment is described as follows: ELISA, biotin-cyno PCSK9 on streptavidin plate; antibody 0.067 nM.
Method: (§1) The next day, the plates were washed twice with wash buffer [0.01% (v/v) Tween 20], then blocked with blocking buffer [0.01% (v/v) 0.1% BSA (w/w) Tween 20] at room temperature for 2 hours. […] Unbound PCSK9 proteins were removed by washing the plate three times with wash buffer [0.01% (v/v) Tween 20]. […] The plates were washed twice with wash buffer [0.01% (v/v) Tween 20], and 200 uL HRP-conjugated secondary antibody (Sigma) was added to each well and incubated for 2 hours at 37° C. After the plates were washed three times with wash buffer, 100 ul TMB substrate were added to each well and incubated for 30 minutes at room temperature. 100 ul stop solution (0.1N HCl) were added to each well to stop the reaction.

In experiment [3] the target is T1, recombinant human PCSK9 protein, …. The experiment in a line: blocking ELISA, biotin-hPCSK9-His on coated LDLR ECD-His; antibody 0.32 nM.
Method: (§2) Purified LDLR^ECD-His was diluted with PBS to a final concentration of 1.0 ug/ml, and 100 uL of diluted LDLR^ECD-His were added to each well of 96-well plate that was then sealed with plastic film and incubated at 4° C. overnight. The plate was washed twice with wash buffer [PBS+0.01% (v/v) Tween 20] and incubated with blocking buffer [PBS+0.01% (v/v) BSA+1% Tween20 (w/w)] at room temperature for 2 hours. […] The plate was washed three times with wash buffer [0.01% (v/v) Tween 20]. 100 uL HRP-conjugated streptavidin (Sigma) were then added to each well and incubated at 37° C. for 1 hour. The plate was then washed three times with wash buffer, and 100 uL TMB substrate were added to each well. After 15 minutes of incubation at room temperature, the reaction was stopped by adding 50 uL stop solution (0.1N HCl).
For experiment [4] the target is unchanged. The experiment in a line: blocking ELISA, biotin-hPCSK9-His on coated LDLR ECD-His; antibody 0.01 nM.
Method: as §2
The target is the same in experiment [5]. The experiment in a line: blocking ELISA, biotin-hPCSK9-His on coated LDLR ECD-His; antibody 200 nM.
Method: as §2
For experiment [6] the target is unchanged. The experiment is described as follows: ELISA, biotin-hPCSK9-His on streptavidin plate; antibody 0.0067 nM.
Method: as §1
In experiment [7] the target is T2, recombinant cyno monkey PCSK9 protein. The experiment is described as follows: ELISA, biotin-cyno PCSK9 on streptavidin plate; antibody 0.0067 nM.
Method: as §1
In experiment [8] the target is T1, recombinant human PCSK9 protein, …. The experiment in a line: ELISA, biotin-hPCSK9-His on streptavidin plate; antibody 66.67 nM.
For experiment [9] the target is unchanged. The experiment is described as follows: blocking ELISA, biotin-hPCSK9-His on coated LDLR ECD-His; antibody 40 nM.
Experiment [10] addresses T2, recombinant cyno monkey PCSK9 protein. The experiment in a line: ELISA, biotin-cyno PCSK9 on streptavidin plate; antibody 0.00067 nM.
Method: as §1
The target is the same in experiment [11]. The experiment in a line: ELISA, biotin-cyno PCSK9 on streptavidin plate; antibody 6.67 nM.
Method: as §1
In experiment [12] the target is T1, recombinant human PCSK9 protein, …. The experiment in a line: ELISA, biotin-hPCSK9-His on streptavidin plate; antibody 0 nM (blank).
Experiment [13] has as its target T2, recombinant cyno monkey PCSK9 protein. The experiment is described as follows: ELISA, biotin-cyno PCSK9 on streptavidin plate; antibody 66.67 nM.
Method: as §1
For experiment [14], the target named is T1, recombinant human PCSK9 protein, …. The experiment is described as follows: ELISA, biotin-hPCSK9-His on streptavidin plate; antibody 0.067 nM.
For experiment [15] the target is unchanged. The experiment is described as follows: ELISA, biotin-hPCSK9-His on streptavidin plate; antibody 0.000067 nM.
Method: as §1
For experiment [16] the target is unchanged. The experiment is described as follows: blocking ELISA, biotin-hPCSK9-His on coated LDLR ECD-His; antibody 8 nM.
In experiment [17] the target is T2, recombinant cyno monkey PCSK9 protein. The experiment is described as follows: ELISA, biotin-cyno PCSK9 on streptavidin plate; antibody 0.67 nM.
Method: as §1
Experiment [18] deals with T1, recombinant human PCSK9 protein, …. The experiment is described as follows: ELISA, biotin-hPCSK9-His on streptavidin plate; antibody 0.00067 nM.
Method: as §1
Experiment [19] has the same target. The experiment in a line: blocking ELISA, biotin-hPCSK9-His on coated LDLR ECD-His; antibody 0.06 nM.
Method: as §2
Experiment [20] concerns the target T2, recombinant cyno monkey PCSK9 protein. The experiment in a line: ELISA, biotin-cyno PCSK9 on streptavidin plate; antibody 0 nM (blank).
Method: as §1
The target of experiment [21] is T1, recombinant human PCSK9 protein, …. The experiment in a line: blocking ELISA, biotin-hPCSK9-His on coated LDLR ECD-His; antibody 1.6 nM.
Method: as §2
The target is the same in experiment [22]. The experiment in a line: ELISA, biotin-hPCSK9-His on streptavidin plate; antibody 6.67 nM.
Method: as §1

T2 sequence (A8T666 31-692 limits assumed): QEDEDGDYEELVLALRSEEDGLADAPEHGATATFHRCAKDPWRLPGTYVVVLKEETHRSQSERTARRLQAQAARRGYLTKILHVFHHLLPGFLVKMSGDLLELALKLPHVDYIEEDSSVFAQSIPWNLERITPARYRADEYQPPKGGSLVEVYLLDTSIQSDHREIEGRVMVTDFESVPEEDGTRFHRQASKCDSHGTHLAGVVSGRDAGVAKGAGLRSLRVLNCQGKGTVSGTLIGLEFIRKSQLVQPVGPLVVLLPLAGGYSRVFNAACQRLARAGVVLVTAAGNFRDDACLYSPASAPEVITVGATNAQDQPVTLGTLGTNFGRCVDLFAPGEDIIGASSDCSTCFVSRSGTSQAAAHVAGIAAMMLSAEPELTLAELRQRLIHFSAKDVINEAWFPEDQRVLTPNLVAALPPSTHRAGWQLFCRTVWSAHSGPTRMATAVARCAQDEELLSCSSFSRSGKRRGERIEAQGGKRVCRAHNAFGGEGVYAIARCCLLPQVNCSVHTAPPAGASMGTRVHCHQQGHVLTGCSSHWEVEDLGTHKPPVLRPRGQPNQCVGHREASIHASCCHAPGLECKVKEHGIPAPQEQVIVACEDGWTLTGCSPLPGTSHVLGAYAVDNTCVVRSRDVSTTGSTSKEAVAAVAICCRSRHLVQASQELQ

B1: 96F8C6, chimeric anti-PCSK9 mAb purified from hybridoma (antibody, V domains shown)
VH: EVQLVESGGGLVQPGGSLRLSCAASGITFSSYWMSWVRQAPGKGLEWVANIKQDGSEKYYVDSVKGRFTISRDIAKNSLYLQMNSLRAEDTAVYYCARDRGTYYYGSGSYNYYYYGMDVWGQGTTVTVSS
VL: not shown
notes: From Harbour H2L2 mice: human variable regions, rat constant regions
On to B1, for which the OD450 nm turned out to be 2.73 OD450 nm in experiment [1]; 0.77 OD450 nm in experiment [2]; 0.3 OD450 nm in experiment [6]; 0.25 OD450 nm in [7]; 2.86 OD450 nm in experiment [8]; 0.23 OD450 nm in experiment [10]. In addition, the OD450 nm in [11] amounted to 2.58 OD450 nm; in experiment [12] it was 0.2 OD450 nm; in [13] it was 2.87 OD450 nm; in experiment [14] it was 1 OD450 nm; in experiment [15], 0.17 OD450 nm; in experiment [17] it was 2.26 OD450 nm. Besides, the OD450 nm in experiment [18] was determined as 0.18 OD450 nm; in experiment [20], 0.25 OD450 nm; in experiment [22], 2.89 OD450 nm. For the same molecule, the “OD450 nm (PCSK9 bound to LDLR)” value in [3] was determined as 1.16 OD450 nm; in experiment [4], 1.19 OD450 nm; in experiment [5], 0.63 OD450 nm; in experiment [9], 0.45 OD450 nm; in experiment [16], 0.53 OD450 nm; in experiment [19], 1.25 OD450 nm. In addition, in experiment [21], the “OD450 nm (PCSK9 bound to LDLR)” value worked out at 0.97 OD450 nm.

The record behind these values is patent US20180355059A1 (PHARMAEXPLORER, published 2018).
